Patent publication US20150267232A1, “IN VIVO AND IN VITRO CARBENE INSERTION AND NITRENE TRANSFER REACTIONS CATALYZED BY HEME ENZYMES” (California Institute of Technology, priority 2012, published 2015)

Key:
[1] = Intramolecular carbene C—H insertion, substrate 4.1a; assay type: biochemical
[2] = P450BM3 compilation plate screen (GC, cyclopropane peaks); assay type: biochemical; settings: P450BM3 variants
[3] = Whole-cell C—H amination of azide 1; assay type: cell-based, E. coli BL21(DE3); settings: lyophilized cells

For hemin, the Yield % ([1]; 10 mM 4.1a, 5% hemin, 10 mM Na2S2O4, product 4.2a) was 0% and the “lactone formation via C—H bond insertion” value ([1]; substrates 4.1a and 4.1b, 10 μM variant or hemin at 5% catalyst loading, 16 h) was “not catalyzed”.

B1: P450BM3: wild-type cytochrome P450BM3 from Bacillus megaterium (SEQ ID NO: 1) (protein, listed as Bacillus megaterium)
chain: TIKEMPQPKTFGELKNLPLLNTDKPVQALMKIADELGEIFKFEAPGRVTRYLSSQRLIKEACDESRFDKNLSQALKFVRDFAGDGLFTSWTHEKNWKKAHNILLPSFSQQAMKGYHAMMVDIAVQLVQKWERLNADEHIEVPEDMTRLTLDTIGLCGFNYRFNSFYRDQPHPFITSMVRALDEAMNKLQRANPDDPAYDENKRQFQEDIKVMNDLVDKIIADRKASGEQSDDLLTHMLNGKDPETGEPLDDENIRYQIITFLIAGHETTSGLLSFALYFLVKNPHVLQKAAEEAARVLVDPVPSYKQVKQLKYVGMVLNEALRLWPTAPAFSLYAKEDTVLGGEYPLEKGDELMVLIPQLHRDKTIWGDDVEEFRPERFENPSAIPQHAFKPFGNGQRACIGQQFALHEATLVLGMMLKHFDFEDHTNYELDIKETLTLKPEGFVVKAKSKKIPLGGIPSPSTEQSAKKVRKKAENAHNTPLLVLYGSNMGTAEGTARDLADIAMSKGFAPQVATLDSHAGNLPREGAVLIVTASYNGHPPDNAKQFVDWLDQASADEVKGVRYSVFGCGDKNWATTYQKVPAFIDETLAAKGAENIADRGEADASDDFEGTYEEWREHMWSDVAAYFNLDIENSEDNKSTLSLQFVDSAADMPLAKMHGAFSTNVVASKELQQPGSARSTRHLEIELPKEASYQEGDHLGVIPRNYEGIVNRVTARFGLDASQQIRLEAEEEKLAHLPLAKTVSVEELLQYVELQDPVTRTQLRAMAAKTVCPPHKVELEALLEKQAYKEQVLAKRLTMLELLEKYPACEMKFSEFIALLPSIRPRYYSISSSPRVDEKQASITVSVVSGEAWSGYGEYKGIASNYLAELQEGDTITCFISTPQSEFTLPKDPETPLIMVGPGTGVAPFRGFVQARKQLKEQGQSLGEAHLYFGCRSPHEDYLYQEELENAQSEGIITLHTAFSRMPNQPKTYVQHVMEQDGKKLIELLDQGAHFYICGDGSQMAPAVEATLMKSYADVHQVSEADARLWLQQLEEKGRYAKDVWAG
modifications: cytochrome P450NADPH-P-450 reductase precursor, cytochrome P450 (BM3), CYP102A1
With B1 the “ee (cis)” value ([2]; (R,S)-(S,R), chiral β-CDX GC) was 7, the de ([2]; diastereomeric excess = ([cis] − [trans])/([cis] + [trans])) was −81 and the Absolute activity ([2]; sum of the area of the cyclopropane peaks over the area of the internal standard) was 0.00224.

B2: ABC-CIS: BM3-CIS + C400S (protein, listed as Bacillus megaterium)
chain: TIKEMPQPKTFGELKNLPLLNTDKPVQALMKIADELGEIFKFEAPGRVTRYLSSQRLIKEACDESRFDKNLSQALKFARDFAGDGLVTSWTHEKNWKKAHNILLPSFSQQAMKGYHAMMVDIAVQLVQKWERLNADEHIEVSEDMTRLTLDTIGLCGFNYRFNSFYRDQPHPFIISMVRALDEVMNKLQRANPDDPAYDENKRQFQEDIKVMNDLVDKIIADRKARGEQSDDLLTQMLNGKDPETGEPLDDGNIRYQIITFLIAGHEATSGLLSFALYFLVKNPHVLQKVAEEAARVLVDPVPSYKQVKQLKYVGMVLNEALRLWPTAPAFSLYAKEDTVLGGEYPLEKGDEVMVLIPQLHRDKTVWGDDVEEFRPERFENPSAIPQHAFKPFGNGQRASIGQQFALHEATLVLGMMLKHFDFEDHTNYELDIKETLTLKPKGFVVKAKSKKIPLGGIPSPSTEQSAKKVRKKAENAHNTPLLVLYGSNMGTAEGTARDLADIAMSKGFAPQVATLDSHAGNLPREGAVLIVTASYNGHPPDNAKQFVDWLDQASADEVKGVRYSVFGCGDKNWATTYQKVPAFIDETLAAKGAENIADRGEADASDDFEGTYEEWREHMWSDVAAYFNLDIENSEDNKSTLSLQFVDSAADMPLAKMHGAFSTNVVASKELQQPGSARSTRHLEIELPKEASYQEGDHLGVIPRNYEGIVNRVTARFGLDASQQIRLEAEEEKLAHLPLAKTVSVEELLQYVELQDPVTRTQLRAMAAKTVCPPHKVELEALLEKQAYKEQVLAKRLTMLELLEKYPACEMKFSEFIALLPSIRPRYYSISSSPRVDEKQASITVSVVSGEAWSGYGEYKGIASNYLAELQEGDTITCFISTPQSEFTLPKDPETPLIMVGPGTGVAPFRGFVQARKQLKEQGQSLGEAHLYFGCRSPHEDYLYQEELENAQSEGIITLHTAFSRMPNQPKTYVQHVMEQDGKKLIELLDQGAHFYICGDGSQMAPAVEATLMKSYADVHQVSEADARLWLQQLEEKGRYAKDVWAG
modifications: cytochrome P450NADPH-P-450 reductase precursor, cytochrome P450 (BM3), CYP102A1
notes: BM3-CIS + C400S
For B2, the “% ee” value [3] was 61% and the TTN [3] was 750.
